Reference: PMC4804749

Target: His111 (UniProt position 111, …)
Experiment: NMR
Settings: 288 K

B1: Prion protein fragment PrP(106-115) (Homo sapiens) (peptide)
chain: KTNMKHMAGA
- pKa: ∼5
- pKa (Free peptide, no copper, 0.3 mM peptide): 6.2
